Measurements as given in patent US20200231671A1 (E R SQUIBB AND SONS L L C, published 2020).

T1: human LAG-3 (cell surface) (human, UniProt P18627 23-525)
T1 construct: whole, on cells; also called CHO-human LAG-3
T1 sequence (looked up): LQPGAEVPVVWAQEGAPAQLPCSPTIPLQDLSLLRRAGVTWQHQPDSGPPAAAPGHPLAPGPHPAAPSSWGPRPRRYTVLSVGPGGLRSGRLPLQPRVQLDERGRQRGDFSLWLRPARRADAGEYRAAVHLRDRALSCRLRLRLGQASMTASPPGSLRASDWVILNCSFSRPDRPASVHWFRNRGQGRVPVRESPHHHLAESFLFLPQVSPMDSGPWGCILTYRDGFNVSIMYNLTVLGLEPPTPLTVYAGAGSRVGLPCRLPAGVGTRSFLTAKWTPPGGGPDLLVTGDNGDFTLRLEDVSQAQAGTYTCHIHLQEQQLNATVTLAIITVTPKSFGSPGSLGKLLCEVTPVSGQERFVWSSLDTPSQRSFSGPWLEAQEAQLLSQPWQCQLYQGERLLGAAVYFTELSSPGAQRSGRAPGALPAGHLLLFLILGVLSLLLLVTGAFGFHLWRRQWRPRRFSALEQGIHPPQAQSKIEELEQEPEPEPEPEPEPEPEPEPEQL

T2: recombinant human LAG-3 fusion protein (human, UniProt P18627 23-450)
T2 construct: also called recombinant LAG-3 protein
T2 sequence (looked up): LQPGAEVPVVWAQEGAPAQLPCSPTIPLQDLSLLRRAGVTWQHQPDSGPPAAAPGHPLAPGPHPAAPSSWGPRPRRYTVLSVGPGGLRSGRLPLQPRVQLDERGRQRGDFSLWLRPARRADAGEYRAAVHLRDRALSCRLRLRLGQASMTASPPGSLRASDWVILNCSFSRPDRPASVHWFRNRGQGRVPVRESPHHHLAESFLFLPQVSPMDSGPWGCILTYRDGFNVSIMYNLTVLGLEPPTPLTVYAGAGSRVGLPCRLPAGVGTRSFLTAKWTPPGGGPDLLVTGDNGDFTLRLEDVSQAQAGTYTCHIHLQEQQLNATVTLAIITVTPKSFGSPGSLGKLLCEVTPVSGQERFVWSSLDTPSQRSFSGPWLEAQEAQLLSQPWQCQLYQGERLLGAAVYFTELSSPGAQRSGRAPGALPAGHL

T3: LAG-3 fusion protein comprising human LAG-3 extracellular domain fused to mouse Fc (human, UniProt P18627 23-450)
T3 construct: extracellular domain; also called hLAG-3-mIg; LAG-3-mIg; not shown: mouse Fc
T3 sequence (looked up): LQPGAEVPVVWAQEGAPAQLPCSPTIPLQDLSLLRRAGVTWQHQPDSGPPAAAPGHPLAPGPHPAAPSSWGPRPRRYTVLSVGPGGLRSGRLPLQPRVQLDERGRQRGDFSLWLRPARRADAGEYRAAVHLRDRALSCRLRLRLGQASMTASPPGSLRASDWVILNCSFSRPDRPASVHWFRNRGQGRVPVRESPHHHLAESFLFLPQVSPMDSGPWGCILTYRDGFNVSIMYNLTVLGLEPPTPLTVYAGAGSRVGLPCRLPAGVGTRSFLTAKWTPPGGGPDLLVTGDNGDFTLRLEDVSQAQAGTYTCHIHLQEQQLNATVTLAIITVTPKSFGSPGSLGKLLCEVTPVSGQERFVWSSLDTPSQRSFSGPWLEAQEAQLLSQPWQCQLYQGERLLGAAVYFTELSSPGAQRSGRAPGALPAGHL


Columns and labels:
[1] = target: T1, human LAG-3 (cell surface); assay: flow cytometry, CHO cells expressing human LAG-3
Description: To test the ability of the antibodies to bind to cell surface LAG-3 protein, the antibodies were incubated with a CHO cell line that had been transfected to express human LAG-3 on the cell surface. The 25F7, 26H10, 25E3, 8B7, 11F2 and 17E5 monoclonal antibodies were serially diluted with cold lx PFAE buffer (1×PBS+2% FBS, 0.02% sodium azide, 2 mM Na EDTA). For the binding reaction, 50 μl of diluted antibody solution was added to a 50 μl cell suspension containing 2×10⁵ cells and the mixture was incubated on ice for 30 minutes. The cells were then washed two times with 1×PFAE buffer. A 1:100 dilution of FITC-labeled goat anti-human kappa light chain antibody (Bethyl Laboratories, Inc., Cat. # A80-115F) was added and the mixture was incubated for 30 minutes at 4° C., followed by washing twice with cold 1×PFAE buffer. After the final wash, 150 μl of cold 1×PFAE containing 10 μg/mL propidium iodide (Roche Applied Science, Cat #1 348 639) was added to each solution and analysis of antibody binding was carried out by flow cytometry using a FACScalibur flow cytometer (BD Bioscience).

[2] = target: T2, recombinant human LAG-3 fusion protein; assay: BIAcore, antibody captured on anti-CH1, 20 nM LAG-3 fusion protein injected
Description: The binding of the 25E3, 25F7, 8B7, 26H10 and 17E5 antibodies to recombinant LAG-3 protein was examined by BIAcore™ using a capture method. The 25E3, 25F7, 8B7, 26H10 and 17E5 antibodies each were captured using anti-CH1, a reagent antibody that is specific towards the heavy chain constant region 1 of human antibody (Zymed, Clone HP6045, Stock conc. 1.0 mg/mL). Anti-CH1 was coated on a CMS chip (BR-1000-14, Research Grade) at high density (9700-11500RUs). The coating was carried out based on the standard immobilization procedure recommended by the manufacturer. The 25E3, 25F7, 8B7, 26H10 or 17E5 purified antibody, with concentrations ranging from 0.5-3 μg/mL, was then captured on the anti-CH1 coated surface at the flow-rate of 10 uL/min for 1 minute. A single concentration of recombinant human LAG-3 fusion protein (20 nM) was injected over captured antibody for 3 minutes at a flow rate of […]. The antigen was allowed to dissociate for 7.5 minutes. The chip surface was regenerated after each cycle with 25 μL, of 25 mM NaOH followed by 30 μL of HBS-EP wash. Isotype controls were run on the chip, and the data used to subtract non-specific binding. All the experiments were carried out on a Biacore 3000 surface plasmon resonance instrument, using BIAcore Control software v 3.2. Data analysis was carried out using BiaEvaluation v3.2 software. The BIAcore results for 25E3, 25F7, 8B7, 26H10 and 17E5 confirm the flow cytometry results that all five antibodies are capable of binding with high affinity to human LAG-3.

[3] = target: T3, LAG-3 fusion protein comprising human …; assay: flow cytometry, inhibition of hLAG-3-mIg binding to MHC Class II on Daudi cells
Description: To test the ability of the anti-LAG-3 antibodies to inhibit binding of LAG-3 to MHC Class II molecules, an in vitro binding assay was performed in which a LAG-3 fusion protein, comprising human LAG-3 extracellar domain fused to mouse Fc (hLAG-3-mIg), was reacted with Daudi cells, which express human MHC Class II molecules.
This mixture was incubated for 20 minutes at room temperature prior to adding to 2×10^{5 1}×PFAE-washed Daudi cells. The mixture was applied to Daudi cells and incubated at 4° C. for 30 minutes. The cells were pelleted (three minutes, 400×g), washed once with 1×PFAE buffer and re-pelleted, and binding of hLAG-3-mIg to the Daudi cells was detected using a recombinant PE-labeled anti-mIgG Fcγ secondary reagent. Analysis of LAG-3-mIg binding was carried out with the FACScalibur flow cytometer (BD Bioscience).

EC50 [1] [nM]	Kd [2] [nM]	IC50 [3] [nM]	fold lower EC50 than 25E3 [1] [fold]	Binder
1.81 to 3.64	0.1	0.1		26H10 human monoclonal antibody (antibody, IgG1, V domains shown, also called 26H10-FITC) VH: QVQLVESGGGVVQPGRSLRLSCAASGFTFSSYGMHWVRQAPGKGLEWVAVIWYDGSNKYYADSVKGRFTISRDNSKNTLYLQMNSLRAEDTAVYYCAREWAVASWDYGMDVWGQGTTVTVSS VL: not shown
0.45 to 2.52	0.47	0.12 to 0.92	~20	25F7 human monoclonal antibody (antibody, IgG1, V domains shown, also called 25F7-FITC (IgG1 version)) VH: QVQLQQWGAGLLKPSETLSLTCAVYGGSFSDYYWNWIRQPPGKGLEWIGEINHNGNTNSNPSLKSRVTLSLDTSKNQFSLKLRSVTAADTAVYYCAFGYSDYEYNWFDPWGQGTLVTVSS VL: EIVLTQSPATLSLSPGERATLSCRASQSISSYLAWYQQKPGQAPRLLIYDASNRATGIPARFSGSGSGTDFTLTISSLEPEDFAVYYCQQRSNWPLTFGQGTNLEIK
1.93 to 4.44	0.09	0.19 to 0.95		8B7 human monoclonal antibody (antibody, IgG4, V domains shown, also called 8B7-FITC) VH: QVQLQQWGAGLLKPSETLSLTCAVYGGSFSGYYWSWIRQPPGKGLEWIGEINHRGNTNCNPSLKSRVTISGDTSKKQFALKLNSVTAADTAVYYCARGYDILTGYYEDSWGPGTLVTVSS VL: EIVLTQSPATLSLSPGERATLSCRASQSVSSYLAWYQQKPGQAPRLLIYNASNRATGIPARFSGSGSGTDFTLTISSLEPEDFAVYYCQQRSNWPLTFGGGTKVEIK
14.9 to 25.4	0.09	0.8 to 6.78		25E3 human monoclonal antibody (antibody, IgG1, V domains shown) VH: EVQLVESGGGVVRPGGSLRLSCAASGFTFDDYGMSWVRQAPGKGLEWVSGINWNGGSTYYADSVKGRFTISGDNAKNSLYLQMNSLRAEDTALYYCTTGGYWGQGTLVTVSS VL: AIQLTQSPSSLSASVGDRVTITCRASQGIRSALAWYQQKPGKAPKLLIYDASSLESGVPSRFSGSGSGTDFTLTISSLQPEDFATYYCQQFNSYPYTFGQGTKLEIK
